Measurements reported in patent US12139520B2 (priority 2020, dated 2024).
Numbered stars: 1 amine (or outer) side, 2 acyl side, 3 side chain; on linkers, the order of the positions; unused ones are H or OH. Bridge positions count the residues as written; N and C are the ends. Square brackets hold non-standard residues; d marks the D form. Ends that are not written are not given here. * marks the point of attachment. C20 diacid = O=C(O)CCCCCCCCCCCCCCCCCCC(=O)*; γGlu = O=C(O)[C@H](CCC(=O)[*:2])N[*:1]; Hyp = O=C(O)[C@@H]1C[C@@H](O)CN1

T1: hAMY3R (human, UniProt P30988)
T1 sequence 1: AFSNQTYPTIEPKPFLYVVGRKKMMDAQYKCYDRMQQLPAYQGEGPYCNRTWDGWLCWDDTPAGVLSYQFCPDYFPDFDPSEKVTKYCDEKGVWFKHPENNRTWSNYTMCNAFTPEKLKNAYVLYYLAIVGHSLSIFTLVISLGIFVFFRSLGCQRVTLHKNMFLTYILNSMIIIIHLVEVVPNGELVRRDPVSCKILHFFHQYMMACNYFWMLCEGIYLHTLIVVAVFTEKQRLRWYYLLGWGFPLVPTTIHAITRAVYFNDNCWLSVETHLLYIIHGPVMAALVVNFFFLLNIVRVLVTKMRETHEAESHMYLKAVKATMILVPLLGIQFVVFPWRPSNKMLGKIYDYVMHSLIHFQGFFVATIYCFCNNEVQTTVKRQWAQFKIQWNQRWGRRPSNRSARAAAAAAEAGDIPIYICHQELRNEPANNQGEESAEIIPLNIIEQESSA
T1 sequence 2: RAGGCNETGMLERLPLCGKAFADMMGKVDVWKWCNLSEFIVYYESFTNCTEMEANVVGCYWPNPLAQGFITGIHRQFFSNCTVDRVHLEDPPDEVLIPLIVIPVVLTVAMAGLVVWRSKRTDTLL


These binders were tested against T1, hAMY3R (assay: cell-based or functional assay).

Binder | hAMY3R EC50 (cAMP) [nM]
KCNTATCATQRLANFLVHSSNNFGAILPSTKIGPNGY [SEQ ID NO: 162] | 0.051
KCNTATCATQRLANFLVHSSNNFGAILPSTKIGSNTY [SEQ ID NO: 180] | 0.082
KCNTATCATQRLANFLVHSSNNFGAILPRTKVGSNGY [SEQ ID NO: 19] | 0.008
GCRFGTCTVQRLANFLYQFTDKDKDNVAPRTNVGPQGY [SEQ ID NO: 16] | 0.008
GCRTGTCTVQRLAHQIYQFTDKDKDNVAPRSNIGPQG[Hyp]-NH2 (disulfide 2-7 (inferred); ends not checked) [SEQ ID NO: 165] | 0.054
GCRFGTCTVQRLAHQIYQFTDKDKDNVAPRSKISPQG[Hyp]-NH2 (disulfide 2-7 (inferred); ends not checked) [SEQ ID NO: 169] | 0.063
GCRMGTCTVQRLAHQIYQFTDKFKDNVAPRSKISPQT[Hyp]-NH2 (disulfide 2-7 (inferred); ends not checked) [SEQ ID NO: 173] | 0.069
GCRTGTCTVQRLAHQIYQFTDKDKDNVAPRTKIGPQG[Hyp]-NH2 (disulfide 2-7 (inferred); ends not checked) [SEQ ID NO: 161] | 0.051
GCRFGTCTVQRLAHQIYQFTDKDKDNVAPRSKVSPQG[Hyp]-NH2 (disulfide 2-7 (inferred); ends not checked) [SEQ ID NO: 167] | 0.056
GCRFGTCTVQRLAHQIYQFTDKDKDNVAPRSNISPQGY [SEQ ID NO: 182] | 0.085
GCRTGTCTVQRLAHQIYQFTDKDKDNVAPRSKIGPQG[Hyp]-NH2 (disulfide 2-7 (inferred); ends not checked) [SEQ ID NO: 179] | 0.082
GCRTGTCTVQRLAHQIYQFTDKDKDNVAPRSNVSPNG[Hyp]-NH2 (disulfide 2-7 (inferred); ends not checked) [SEQ ID NO: 166] | 0.056
GCRTGTCTVQRLAHQIYQFTDKDKDNVAPRSKIGPNG[Hyp]-NH2 (disulfide 2-7 (inferred); ends not checked) [SEQ ID NO: 157] | 0.047
GCRFGTCTVQRLAHQIYQFTDKDKDNVAPRSKISPQT[Hyp]-NH2 (disulfide 2-7 (inferred); ends not checked) [SEQ ID NO: 168] | 0.062
KCNFATCTVQRLAHQIYQFTDKDKDNVAPRTEVGSNG[Hyp]-NH2 (disulfide 2-7 (inferred); ends not checked) [SEQ ID NO: 17] | 0.008
KCNFATCTVQRLAHQIYQFTDKDKDNVAPPTEVGSNGP [SEQ ID NO: 18] | 0.008
GCRFGTCTVQRLAHQIYQFTDKDKDNVAPRSKVSPNG[Hyp]-NH2 (disulfide 2-7 (inferred); ends not checked) [SEQ ID NO: 175] | 0.074

Binder | hAMY3R EC50 (cAMP) [nM]
GCRTGTCTVQRLAHQIYQFTDKDKDNVAPRTNVSPNG[Hyp]-NH2 (disulfide 2-7 (inferred); ends not checked) [SEQ ID NO: 163] | 0.053
KCNTATCTVQRLAHQIYFTDKDKDNVAPPTNVGSNG[Hyp]-NH2 (disulfide 2-7 (inferred); ends not checked) [SEQ ID NO: 181] | 0.082
{C20 diacid-γGlu}-KCNTATCTVIRLAHQIYQFTDKDKDNVAPPTNVGSNG[Hyp]-NH2 (disulfide 2-7 (inferred); ends not checked) [SEQ ID NO: 159] | 0.048
GCRTGTCTVQRLAHQIYQFTDKFKDNVAPRSKISPQTW [SEQ ID NO: 184] | 0.09
GCRTGTCTVQRLAHQIYQFTDKDKDNVAPRTNISPNG[Hyp]-NH2 (disulfide 2-7 (inferred); ends not checked) [SEQ ID NO: 170] | 0.064
GCRTGTCTVQRLAHQIYQFTDKDKDNVAPRTNVSPQG[Hyp]-NH2 (disulfide 2-7 (inferred); ends not checked) [SEQ ID NO: 178] | 0.08
GCRTGTCTVQRLAHQIYQFTDKDKDNVAPRTKVGPQGY [SEQ ID NO: 156] | 0.047
GCRTGTCTVQRLAHQIYQFTDKDKDNVAPRTNIGPQGY [SEQ ID NO: 160] | 0.05
GCRFGTCTVQRLAHQIYQFTDKDKDNVAPRSKVSPQGY [SEQ ID NO: 174] | 0.071
GCRTGTCTVQRLAHQIYQFTDKDKDNVAPRTNVSPQGY [SEQ ID NO: 176] | 0.076
GCRFGTCTVQRLAHQIYQFTDKDKDNVAPRTKISPQGY [SEQ ID NO: 164] | 0.054
GCRTGTCTVQRLAHQIYQFTDKDKDNVAPRSNVGPNGY [SEQ ID NO: 177] | 0.077
GCRTGTCTVQRLAHQIYQFTDKDKDNVAPRSNVSPQGY [SEQ ID NO: 183] | 0.088
GCRTGTCTVQRLAHQIYQFTDKDKDNVAPRSNVSPNGY [SEQ ID NO: 172] | 0.066
GCRFGTCTVQRLAHQIYQFTDKDKDNVAPRSNISPQG[Hyp]-NH2 (disulfide 2-7 (inferred); ends not checked) [SEQ ID NO: 158] | 0.048
GCRWGTCTVQRLAHQIYQFTDKFKDNVAPRSKISPQT[Hyp]-NH2 (disulfide 2-7 (inferred); ends not checked) [SEQ ID NO: 171] | 0.064
GCRTGTCTVQRLAHQIYQFTDKFKDNVAPRSKISPQW[Hyp]-NH2 (disulfide 2-7 (inferred); ends not checked) [SEQ ID NO: 185] | 0.09

These binders were tested against hAM1R (human, UniProt Q16602) (assay: cell-based or functional assay).

Binder | hAM1R EC50 (cAMP) [nM]
KCNTATCATQRLANFLVHSSNNFGAILPSTKIGPNGY [SEQ ID NO: 162] | > 5000
KCNTATCATQRLANFLVHSSNNFGAILPSTKIGSNTY [SEQ ID NO: 180] | > 5000
KCNTATCATQRLANFLVHSSNNFGAILPRTKVGSNGY [SEQ ID NO: 19] | > 5000
GCRFGTCTVQRLANFLYQFTDKDKDNVAPRTNVGPQGY [SEQ ID NO: 16] | 125
GCRTGTCTVQRLAHQIYQFTDKDKDNVAPRSNIGPQG[Hyp]-NH2 (disulfide 2-7 (inferred); ends not checked) [SEQ ID NO: 165] | 2980
GCRFGTCTVQRLAHQIYQFTDKDKDNVAPRSKISPQG[Hyp]-NH2 (disulfide 2-7 (inferred); ends not checked) [SEQ ID NO: 169] | 2980
GCRMGTCTVQRLAHQIYQFTDKFKDNVAPRSKISPQT[Hyp]-NH2 (disulfide 2-7 (inferred); ends not checked) [SEQ ID NO: 173] | > 5000
GCRTGTCTVQRLAHQIYQFTDKDKDNVAPRTKIGPQG[Hyp]-NH2 (disulfide 2-7 (inferred); ends not checked) [SEQ ID NO: 161] | 2980
GCRFGTCTVQRLAHQIYQFTDKDKDNVAPRSKVSPQG[Hyp]-NH2 (disulfide 2-7 (inferred); ends not checked) [SEQ ID NO: 167] | 2980
GCRFGTCTVQRLAHQIYQFTDKDKDNVAPRSNISPQGY [SEQ ID NO: 182] | 100
GCRTGTCTVQRLAHQIYQFTDKDKDNVAPRSKIGPQG[Hyp]-NH2 (disulfide 2-7 (inferred); ends not checked) [SEQ ID NO: 179] | 2980
GCRTGTCTVQRLAHQIYQFTDKDKDNVAPRSNVSPNG[Hyp]-NH2 (disulfide 2-7 (inferred); ends not checked) [SEQ ID NO: 166] | 2980
GCRTGTCTVQRLAHQIYQFTDKDKDNVAPRSKIGPNG[Hyp]-NH2 (disulfide 2-7 (inferred); ends not checked) [SEQ ID NO: 157] | 2980
GCRFGTCTVQRLAHQIYQFTDKDKDNVAPRSKISPQT[Hyp]-NH2 (disulfide 2-7 (inferred); ends not checked) [SEQ ID NO: 168] | > 5000
KCNFATCTVQRLAHQIYQFTDKDKDNVAPRTEVGSNG[Hyp]-NH2 (disulfide 2-7 (inferred); ends not checked) [SEQ ID NO: 17] | 295
KCNFATCTVQRLAHQIYQFTDKDKDNVAPPTEVGSNGP [SEQ ID NO: 18] | 817
GCRFGTCTVQRLAHQIYQFTDKDKDNVAPRSKVSPNG[Hyp]-NH2 (disulfide 2-7 (inferred); ends not checked) [SEQ ID NO: 175] | 2980

Binder | hAM1R EC50 (cAMP) [nM]
GCRTGTCTVQRLAHQIYQFTDKDKDNVAPRTNVSPNG[Hyp]-NH2 (disulfide 2-7 (inferred); ends not checked) [SEQ ID NO: 163] | 2980
KCNTATCTVQRLAHQIYFTDKDKDNVAPPTNVGSNG[Hyp]-NH2 (disulfide 2-7 (inferred); ends not checked) [SEQ ID NO: 181] | > 5000
{C20 diacid-γGlu}-KCNTATCTVIRLAHQIYQFTDKDKDNVAPPTNVGSNG[Hyp]-NH2 (disulfide 2-7 (inferred); ends not checked) [SEQ ID NO: 159] | > 5000
GCRTGTCTVQRLAHQIYQFTDKFKDNVAPRSKISPQTW [SEQ ID NO: 184] | 4500
GCRTGTCTVQRLAHQIYQFTDKDKDNVAPRTNISPNG[Hyp]-NH2 (disulfide 2-7 (inferred); ends not checked) [SEQ ID NO: 170] | 2980
GCRTGTCTVQRLAHQIYQFTDKDKDNVAPRTNVSPQG[Hyp]-NH2 (disulfide 2-7 (inferred); ends not checked) [SEQ ID NO: 178] | 2980
GCRTGTCTVQRLAHQIYQFTDKDKDNVAPRTKVGPQGY [SEQ ID NO: 156] | 2980
GCRTGTCTVQRLAHQIYQFTDKDKDNVAPRTNIGPQGY [SEQ ID NO: 160] | 2980
GCRFGTCTVQRLAHQIYQFTDKDKDNVAPRSKVSPQGY [SEQ ID NO: 174] | 133
GCRTGTCTVQRLAHQIYQFTDKDKDNVAPRTNVSPQGY [SEQ ID NO: 176] | 2980
GCRFGTCTVQRLAHQIYQFTDKDKDNVAPRTKISPQGY [SEQ ID NO: 164] | 106
GCRTGTCTVQRLAHQIYQFTDKDKDNVAPRSNVGPNGY [SEQ ID NO: 177] | 2980
GCRTGTCTVQRLAHQIYQFTDKDKDNVAPRSNVSPQGY [SEQ ID NO: 183] | 2980
GCRTGTCTVQRLAHQIYQFTDKDKDNVAPRSNVSPNGY [SEQ ID NO: 172] | 2980
GCRFGTCTVQRLAHQIYQFTDKDKDNVAPRSNISPQG[Hyp]-NH2 (disulfide 2-7 (inferred); ends not checked) [SEQ ID NO: 158] | 2980
GCRWGTCTVQRLAHQIYQFTDKFKDNVAPRSKISPQT[Hyp]-NH2 (disulfide 2-7 (inferred); ends not checked) [SEQ ID NO: 171] | > 5000
GCRTGTCTVQRLAHQIYQFTDKFKDNVAPRSKISPQW[Hyp]-NH2 (disulfide 2-7 (inferred); ends not checked) [SEQ ID NO: 185] | > 5000
